This is an account of results in PMC12237034.

For assay [1], the target named is Coagulation factor XIa.
Assay [2] concerns the target Coagulation factor XIa. In words: enzyme inhibition kinetics; XIa (0.5 nM) preincubated with peptide 30 min at 37 °C, chromogenic substrate S2366; 50 mM Tris pH 7.4, 140 mM NaCl, 5 mM CaCl2, 0.1% BSA; double reciprocal plots, mixed inhibition.

For orientation: Ki means the equilibrium dissociation constant of an inhibitor or competing ligand from its target.

Regarding “Schistosoma Kunitz peptide Shp4 (Schistosoma haematobium peptide-repeat 4) (domain or fragment)”, in the assay with Coagulation factor XIa [1], the inhibition of XIa activity on a chromogenic substrate, concentration dependent was found to be 7.1 nM. In addition, in the assay with Coagulation factor XIa [2], the Ki turned out to be 3.35 nM and the Ki' (towards the enzyme-substrate complex) was 1.64 nM.
